Data set [1] has as its target T1, EcoRI (UniProt P00642 P00642:2-277). Description: cleavage_in_vitro; assayed as pair with SEQ 2; cleavage-ligation-RCA readout; Mg acetate pH 7.9, 37 C; std error 6.6. The following applies: tags: Thermo Scientific; chain copies: 2; hairpin. How it is done:
(§1) For detection of EcoRI activity, 50 pmol of each of the two substrates REN2-ID33-EcoRI (SEQ ID NO: 1) and REN2-PB-EcoRI (SEQ ID NO: 2) were incubated for 1 h at 37° C. either with or without 10 units of EcoRI. The reaction was done in a reaction buffer containing 500 mM Potassium Acetate; 200 mM Tris-acetate; 100 mM Magnesium Acetate; and 1 mg/ml BSA (pH 7.9). The reaction volume was 50 μL. After incubation, the restriction endonuclease was inactivated by heating to 94° C. for 10 minutes. ATP was added to a final concentration of 10 mM and 1 unit of T4 ligase (Invitrogen) was added. The reaction mixture was then incubated over night at room temperature.
(§2) The two substrate molecules carrying the EcoRI cleavage sites (see materials and methods) were incubated with or without purified enzyme and subjected to the protocol as described in materials and methods (see also FIG. 1A). After counting the signals, the fold increase over background (no enzyme) was calculated.

Data set [2] deals with T1, EcoRI. Description: cleavage_in_vitro; assayed as pair with SEQ 1; cleavage-ligation-RCA readout; Mg acetate pH 7.9, 37 C; std error 6.6. The note with it: tags: Thermo Scientific; chain copies: 2; hairpin. How it is done:
as §1, §2

T1 sequence (P00642 2-277, one chain of several): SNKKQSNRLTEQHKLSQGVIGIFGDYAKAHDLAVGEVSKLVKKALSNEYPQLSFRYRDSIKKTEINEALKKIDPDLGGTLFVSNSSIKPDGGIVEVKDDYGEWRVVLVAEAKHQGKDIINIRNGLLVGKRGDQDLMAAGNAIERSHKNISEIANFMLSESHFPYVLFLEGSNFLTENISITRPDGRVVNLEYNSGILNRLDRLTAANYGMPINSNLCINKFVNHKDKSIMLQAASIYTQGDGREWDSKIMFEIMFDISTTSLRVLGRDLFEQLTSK

B1: REN2-ID33-EcoRI (structured_DNA)
DNA: ATTTGACGAATTCGTCGTATAGGAACTTCGAACGACTCGCCTCAATGCACATGTTTGGCTCCCGAGTCGTTCGAAGTTCCTATACGACGAATTCGTCAAAT
modifications: 5'-amine and 3'-amine
With B1, in the data set with EcoRI [1], the activity turned out to be 110 fold over no enzyme.

B2: REN2-PB-EcoRI (structured_DNA)
DNA: ATTTCCAGAATTCTGGGTATAGGAACTTCGAACGACTCGACTGTGAAGATCGCTTATCGAGTCGTTCGAAGTTCCTATACCCAGAATTCTGGAAAT
modifications: 5'-amine and 3'-amine
Take B2: the activity with EcoRI [2] turned out to be 110 fold over no enzyme.
